This is an account of results in PMC2474647.

For this assay, the target named is GST-HP1β (UniProt P83917). The assay is described as follows: pull-down; GST-HP1β bound to glutathione beads, in nuclear extraction buffer, incubated with FLAG-TIF1βs purified from 293T cells by FLAG peptide elution; Western blot quantified with ImageGauge, normalised to GST-HP1β. On the technique in general: Immunoblotting shows a protein as a band on a membrane.
UniProt P83917, sequence (P83917 whole entry): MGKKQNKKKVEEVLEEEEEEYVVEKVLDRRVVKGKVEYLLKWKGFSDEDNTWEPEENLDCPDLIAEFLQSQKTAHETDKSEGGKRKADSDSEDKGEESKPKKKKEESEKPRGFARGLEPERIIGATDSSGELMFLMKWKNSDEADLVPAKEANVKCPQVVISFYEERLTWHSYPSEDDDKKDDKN

“FLAG-TIF1β (wild type), expressed in 293T cells (natural protein)” yielded a relative level pulled down by GST-HP1β (normalised to GST-HP1β) of 1.39. The figure for “FLAG-TIF1β/S473A, expressed in 293T cells (natural protein)” is 1.63.
